Laboratory results reported in the supplement of paper PMC5998384.

Tests used:
HeLa Kyoto [1] = assay: melting temperature (median over replicates), in situ; higher = more thermally stable
HeLa Kyoto [2] = assay: solubility in G1/S (NP-40 vs SDS abundance) (log2 ratio); higher = more soluble; details: cell cycle stage: G1/S
HeLa Kyoto [3] = assay: solubility change mitosis vs G1/S (difference of NP-40 vs SDS log2 ratios) (log2 ratio difference); higher = more soluble in mitosis
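For melting temperature (median over replicates), in situ in this document: HeLa Kyoto cells synchronized by double thymidine or nocodazole block, proteins quantified by TMT10plex mass spectrometry, three independent biological replicates.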
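For solubility change mitosis vs G1/S (difference of NP-40 vs SDS log2 ratios) in this document: synchronized HeLa Kyoto cells (double thymidine block for G1/S, nocodazole release for mitosis), protein amounts in NP-40 versus SDS lysates quantified by mass spectrometry, three biological replicates.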
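For solubility in G1/S (NP-40 vs SDS abundance) in this document: HeLa Kyoto cells arrested at G1/S by double thymidine block, proteins quantified by TMT10plex mass spectrometry in mild NP-40 versus SDS extracts, three biological replicates.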

Sequence: MNVALQELGAGSNMVEYKRATLRDEDAPETPVEGGASPDAMEVGKGASPFSPGPSPGMTPGTPRSSGLFWRVTCPHLRSISGLCSRTMVGFQKGTRQLLGSRTQLELVLAGASLLLAALLLGCLVALGVQYHRDPSHSTCLTEACIRVAGKILESLDRGVSPCEDFYQFSCGGWIRRNPLPDGRSRWNTFNSLWDQNQAILKHLLENTTFNSSSEAEQKTQRFYLSCLQVERIEELGAQPLRDLIEKIGGWNITGPWDQDNFMEVLKAVAGTYRATPFFTVYISADSKSSNSNVIQVDQSGLFLPSRDYYLNRTANEKVLTAYLDYMEELGMLLGGRPTSTREQMQQVLELEIQLANITVPQDQRRDEEKIYHKMSISELQALAPSMDWLEFLSFLLSPLELSDSEPVVVYGMDYLQQVSELINRTEPSILNNYLIWNLVQKTTSSLDRRFESAQEKLLETLYGTKKSCVPRWQTCISNTDDALGFALGSLFVKATFDRQSKEIAEGMISEIRTAFEEALGQLVWMDEKTRQAAKEKADAIYDMIGFPDFILEPKELDDVYDGYEISEDSFFQNMLNLYNFSAKVMADQLRKPPSRDQWSMTPQTVNAYYLPTKNEIVFPAGILQAPFYARNHPKALNFGGIGVVMGHELTHAFDDQGREYDKEGNLRPWWQNESLAAFRNHTACMEEQYNQYQVNGERLNGRQTLGENIADNGGLKAAYNAYKAWLRKHGEEQQLPAVGLTNHQLFFVGFAQVWCSVRTPESSHEGLVTDPHSPARFRVLGTLSNSRDFLRHFGCPVGSPMNPGQLCEVW [ECE2]
- melting temperature (HeLa Kyoto [1]; cell cycle stage: mitosis): 50.7 °C
- solubility in G1/S (log2) (HeLa Kyoto [2]): 0.0962
- solubility change mitosis (log2) (HeLa Kyoto [3]): -0.189

Sequence: MPNFCAAPNCTRKSTQSDLAFFRFPRDPARCQKWVENCRRADLEDKTPDQLNKHYRLCAKHFETSMICRTSPYRTVLRDNAIPTIFDLTSHLNNPHSRHRKRIKELSEDEIRTLKQKKIDETSEQEQKHKETNNSNAQNPSEEEGEGQDEDILPLTLEEKENKEYLKSLFEILILMGKQNIPLDGHEADEIPEGLFTPDNFQALLECRINSGEEVLRKRFETTAVNTLFCSKTQQRQMLEICESCIREETLREVRDSHFFSIITDDVVDIAGEEHLPVLVRFVDESHNLREEFIGFLPYEADAEILAVKFHTMITEKWGLNMEYCRGQAYIVSSGFSSKMKVVASRLLEKYPQAIYTLCSSCALNMWLAKSVPVMGVSVALGTIEEVCSFFHRSPQLLLELDNVISVLFQNSKERGKELKEICHSQWTGRHDAFEILVELLQALVLCLDGINSDTNIRWNNYIAGRAFVLCSAVSDFDFIVTIVVLKNVLSFTRAFGKNLQGQTSDVFFAAGSLTAVLHSLNEVMENIEVYHEFWFEEATNLATKLDIQMKLPGKFRRAHQGNLESQLTSESYYKETLSVPTVEHIIQELKDIFSEQHLKALKCLSLVPSVMGQLKFNTSEEHHADMYRSDLPNPDTLSAELHCWRIKWKHRGKDIELPSTIYEALHLPDIKFFPNVYALLKVLCILPVMKVENERYENGRKRLKAYLRNTLTDQRSSNLALLNINFDIKHDLDLMVDTYIKLYTSKSELPTDNSETVENT [PRKRIR]
- melting temperature (HeLa Kyoto [1]; cell cycle stage: G1/S): 51.3 °C
- melting temperature (HeLa Kyoto [1]; cell cycle stage: mitosis): 50.9 °C
- solubility in G1/S (log2) (HeLa Kyoto [2]): 0.246
- solubility change mitosis (log2) (HeLa Kyoto [3]): -0.0658

Sequence: MPPERRRRMKLDRRTGAKPKRKPGMRPDWKAGAGPGGPPQKPAPSSQRKPPARPSAAAAAIAVAAAEEERRLRQRNRLRLEEDKPAVERCLEELVFGDVENDEDALLRRLRGPRVQEHEDSGDSEVENEAKGNFPPQKKPVWVDEEDEDEEMVDMMNNRFRKDMMKNASESKLSKDNLKKRLKEEFQHAMGGVPAWAETTKRKTSSDDESEEDEDDLLQRTGNFISTSTSLPRGILKMKNCQHANAERPTVARISSVQFHPGAQIVMVAGLDNAVSLFQVDGKTNPKIQSIYLERFPIFKACFSANGEEVLATSTHSKVLYVYDMLAGKLIPVHQVRGLKEKIVRSFEVSPDGSFLLINGIAGYLHLLAMKTKELIGSMKINGRVAASTFSSDSKKVYASSGDGEVYVWDVNSRKCLNRFVDEGSLYGLSIATSRNGQYVACGSNCGVVNIYNQDSCLQETNPKPIKAIMNLVTGVTSLTFNPTTEILAIASEKMKEAVRLVHLPSCTVFSNFPVIKNKNISHVHTMDFSPRSGYFALGNEKGKALMYRLHHYSDF [UTP18]
- melting temperature (HeLa Kyoto [1]; cell cycle stage: mitosis): 52.7 °C
- solubility in G1/S (log2) (HeLa Kyoto [2]): -2.03
- solubility change mitosis (log2) (HeLa Kyoto [3]): 0.81

Sequence: MPVTHRKSDASDMNSDTSPSCRLRAFSRGGSLESRSSSSRSRSFTLDDESLKYLTHEEKDVLLFFEETIDSLDEDFEEPVLCDGGVCCLCSPSLEESTSSPSEPEDVIDLVQPAPGAGEAEGLPEGTQAAGPAPAGKEHRKQDAETPPPPDPPAPETLLAPPPLPSTPDPPRRELRAPSPPVEHPRLLRSVPTPLVMAQKISERMAGNEALSPTSPFREGRPGEWRTPAARGPRSGDPGPGPSHPAQPKAPRFPSNIIVTNGAAREPRRTLSRAAVSVQERRAQVLATIHGHAGAFPAAGDAGEGAPGGGSSPERVARGRGLPGPAESLRAGGQAPRGPALANGFPSAHEALKSAPSSFAPAGKSLCFRPGPALPSTRARQSFPGPRQPNGAQDWRRADSLPRPQGITVQFAGRGSSEEARREALRKLGLLRESS [PROSER2]
- melting temperature (HeLa Kyoto [1]; cell cycle stage: G1/S): 48.6 °C
- melting temperature (HeLa Kyoto [1]; cell cycle stage: mitosis): 51.3 °C
- solubility in G1/S (log2) (HeLa Kyoto [2]): 0.405
- solubility change mitosis (log2) (HeLa Kyoto [3]): -0.0862

Sequence: MQNEPLTPGYHGFPARDSQGNQEPTTTPDAMVQPFTTIPFPPPPQNGIPTEYGVPHTQDYAGQTGEHNLTLYGSTQAHGEQSSNSPSTQNGSLTTEGGAQTDGQQSQTQSSENSESKSTPKRLHVSNIPFRFRDPDLRQMFGQFGKILDVEIIFNERGSKGFGFVTFENSADADRAREKLHGTVVEGRKIEVNNATARVMTNKKMVTPYANGWKLSPVVGAVYGPELYAASSFQADVSLGNDAAVPLSGRGGINTYIPLISLPLVPGFPYPTAATTAAAFRGAHLRGRGRTVYGAVRAVPPTAIPAYPGVVYQDGFYGADLYGGYAAYRYAQPATATAATAAAAAAAAYSDGYGRVYTADPYHALAPAASYGVGAVASLYRGGYSRFAPY [RBFOX2]
- melting temperature (HeLa Kyoto [1]; cell cycle stage: G1/S): 49.8 °C
- solubility in G1/S (log2) (HeLa Kyoto [2]): 0.223
- solubility change mitosis (log2) (HeLa Kyoto [3]): 0.0624

Sequence: MRDYDEVTAFLGEWGPFQRLIFFLLSASIIPNGFTGLSSVFLIATPEHRCRVPDAANLSSAWRNHTVPLRLRDGREVPHSCRRYRLATIANFSALGLEPGRDVDLGQLEQESCLDGWEFSQDVYLSTIVTEWNLVCEDDWKAPLTISLFFVGVLLGSFISGQLSDRFGRKNVLFVTMGMQTGFSFLQIFSKNFEMFVVLFVLVGMGQISNYVAAFVLGTEILGKSVRIIFSTLGVCIFYAFGYMVLPLFAYFIRDWRMLLVALTMPGVLCVALWWFIPESPRWLISQGRFEEAEVIIRKAAKANGIVVPSTIFDPSELQDLSSKKQQSHNILDLLRTWNIRMVTIMSIMLWMTISVGYFGLSLDTPNLHGDIFVNCFLSAMVEVPAYVLAWLLLQYLPRRYSMATALFLGGSVLLFMQLVPPDLYYLATVLVMVGKFGVTAAFSMVYVYTAELYPTVVRNMGVGVSSTASRLGSILSPYFVYLGAYDRFLPYILMGSLTILTAILTLFLPESFGTPLPDTIDQMLRVKGMKHRKTPSHTRMLKDGQERPTILKSTAF [SLC22A5]
- melting temperature (HeLa Kyoto [1]; cell cycle stage: G1/S): 59.7 °C
- melting temperature (HeLa Kyoto [1]; cell cycle stage: mitosis): 56.9 °C
- solubility in G1/S (log2) (HeLa Kyoto [2]): 0.228
- solubility change mitosis (log2) (HeLa Kyoto [3]): -0.137

Sequence: MRESALERGPVPEAPAGGPVHAVTVVTLLEKLASMLETLRERQGGLARRQGGLAGSVRRIQSGLGALSRSHDTTSNTLAQLLAKAERVSSHANAAQERAVRRAAQVQRLEANHGLLVARGKLHVLLFKEEGEVPASAFQKAPEPLGPADQSELGPEQLEAEVGESSDEEPVESRAQRLRRTGLQKVQSLRRALSGRKGPAAPPPTPVKPPRLGPGRSAEAQPEAQPALEPTLEPEPPQDTEEDPGRPGAAEEALLQMESVA [PRKCDBP]
- melting temperature (HeLa Kyoto [1]; cell cycle stage: G1/S): 53.9 °C
- melting temperature (HeLa Kyoto [1]; cell cycle stage: mitosis): 52.8 °C
- solubility in G1/S (log2) (HeLa Kyoto [2]): 0.305
- solubility change mitosis (log2) (HeLa Kyoto [3]): 0.338
